Assay results taken from paper PMC5829831, “Structural Basis for DNA Recognition by the Two-Component Response Regulator RcsB” (mBio, 2018).

Key:
[1] = target: the molecule itself; assay: SEC-MALS; RcsB in the presence of the 22-bp DNA duplex DNA22, with and without CPh; RcsB and DNA 1 mg/ml; Superdex 75 10/300 GL; 10 mM Tris-HCl pH 8.3, 150 mM NaCl, 0.5 mM TCEP; 22°C
RcsB [2] = target: T1, RcsB (Escherichia coli str. K-12 substr. …, UniProt P0DMC7 1-216); assay: SPR; no CPh; EMSA: 10 mM Tris pH 7.5, 40 mM KCl, 1 mM DTT, 10 mM MgCl2, 5% glycerol, 0.1 ug/ul BSA, room temp; SPR: 10 mM Tris-HCl pH 8.3, 150 mM NaCl, 0.5 mM TCEP, 25 C; conditions: protein: recombinant; tags: N-terminal 6xHis (pCA24n, ASKA clone); chain copies: 2; label: biotin (SPR); blunt
T1 sequence: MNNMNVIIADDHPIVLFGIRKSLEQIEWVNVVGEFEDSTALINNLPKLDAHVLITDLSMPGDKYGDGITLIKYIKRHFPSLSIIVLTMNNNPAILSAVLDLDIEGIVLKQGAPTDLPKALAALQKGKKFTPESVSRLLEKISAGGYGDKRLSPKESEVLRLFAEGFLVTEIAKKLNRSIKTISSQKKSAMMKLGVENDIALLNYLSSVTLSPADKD

RcsB [3] = target: T1, RcsB; assay: X-ray crystallography; unphosphorylated, 3.37 A; tetramer on two DNAs; EMSA: 10 mM Tris pH 7.5, 40 mM KCl, 1 mM DTT, 10 mM MgCl2, 5% glycerol, 0.1 ug/ul BSA, room temp; SPR: 10 mM Tris-HCl pH 8.3, 150 mM NaCl, 0.5 mM TCEP, 25 C; conditions: protein: recombinant; tags: N-terminal 6xHis (pCA24n, ASKA clone); chain copies: 2; blunt

B1: RcsB, two-component response regulator of the Rcs phosphorelay system (natural protein, E. coli, UniProt P0DMC7 1-216, looked up)
chain: T1 sequence
notes: RcsB from Escherichia coli, full length, REC domain, linker and HTH domain; theoretical mass of the monomer 24 kDa; In some samples carbamoyl phosphate (CPh) and MgCl2 were added to phosphorylate D56; also called RcsB* (in the presence of phosphodonor); unphosphorylated RcsB; source: purified RcsB
[1]
  stoichiometry N: 2

B2: DNA22, biotinylated (dsDNA)
DNA 1: GATTTAGGAAAAATCTTAGATA
DNA 2: TATCTAAGATTTTTCCTAAATC
RcsB [2]
  Kd: ~5.34 µM

B3: DNA18 (flhDC RcsAB box) (dsDNA)
DNA 1: TTTAGGAAAAATCTTAGA
DNA 2: TCTAAGATTTTTCCTAAA
RcsB [3]
  binding result: binds
